Laboratory results published in patent US20150132313A1.

What was measured:
human leukocyte IFN = assay: cell-based or functional assay
IFNα2a (human) = IFNα2a (human) (UniProt P01563); assay: cell-based or functional assay

Chain of MEDI-545 (VH): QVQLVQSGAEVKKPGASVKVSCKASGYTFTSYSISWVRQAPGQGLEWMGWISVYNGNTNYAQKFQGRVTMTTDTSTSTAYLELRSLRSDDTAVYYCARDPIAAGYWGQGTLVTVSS
Chain of MEDI-545 (VL): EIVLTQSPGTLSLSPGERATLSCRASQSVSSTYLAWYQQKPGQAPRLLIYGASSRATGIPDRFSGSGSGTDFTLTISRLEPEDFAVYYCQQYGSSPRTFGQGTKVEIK

## MEDI-545 (antibody)
Human leukocyte IFN
  neutralization of ISG15, USP18 and IFIT2 overexpression in keratinocytes stimulated with 150 I.U./mL leukocyte IFN: 70 to 100%
IFNα2a (human)
  HERC5 gene expression (Average), 107 IFN + 545 (107 IFN alone 41.12; 107 VEH 1.00): 6.29
  HERC5 gene expression (Average), 163 IFN + 545 (163 IFN alone 75.81; 163 VEH 1.05): 7.83
  HERC5 gene expression (Average), 175 IFN + 545 (175 IFN alone 74.58; 175 VEH 1.19): 6.89
  IFIT1 gene expression, Average (TAQMAN, whole blood + 100 IU IFNα2a + MEDI-545; donor 107; IFN alone 80.21) (relative expression): 13.1
  IFIT1 gene expression, Average (TAQMAN, whole blood + 100 IU IFNα2a + MEDI-545; donor 163; IFN alone 51.65) (relative expression): 7.6
  IFIT1 gene expression, Average (TAQMAN, whole blood + 100 IU IFNα2a + MEDI-545; donor 175; IFN alone 82.98) (relative expression): 8.4
  IFIT3 gene expression, Average (TAQMAN, whole blood + 100 IU IFNα2a + MEDI-545; donor 107; IFN alone 38.43) (relative expression): 6.78
  IFIT3 gene expression, Average (TAQMAN, whole blood + 100 IU IFNα2a + MEDI-545; donor 163; IFN alone 25.94) (relative expression): 4.58
  IFIT3 gene expression, Average (TAQMAN, whole blood + 100 IU IFNα2a + MEDI-545; donor 175; IFN alone 35.02) (relative expression): 5.28
  IL6ST gene expression, Average (TAQMAN, whole blood + 100 IU IFNα2a + MEDI-545; donor 107; IFN alone 3.54) (relative expression): 2.62
  IL6ST gene expression, Average (TAQMAN, whole blood + 100 IU IFNα2a + MEDI-545; donor 163; IFN alone 7.69) (relative expression): 4.18
  IL6ST gene expression, Average (TAQMAN, whole blood + 100 IU IFNα2a + MEDI-545; donor 175; IFN alone 7.62) (relative expression): 2.95
  IRF7 gene expression, Average (TAQMAN, whole blood + 100 IU IFNα2a + MEDI-545; donor 107; IFN alone 18.53) (relative expression): 3.42
  IRF7 gene expression, Average (TAQMAN, whole blood + 100 IU IFNα2a + MEDI-545; donor 163; IFN alone 17.16) (relative expression): 2.92
  IRF7 gene expression, Average (TAQMAN, whole blood + 100 IU IFNα2a + MEDI-545; donor 175; IFN alone 24.65) (relative expression): 2.43
  LY6E gene expression, Average (TAQMAN, whole blood + 100 IU IFNα2a + MEDI-545; donor 107; IFN alone 19.09) (relative expression): 3.5
  LY6E gene expression, Average (TAQMAN, whole blood + 100 IU IFNα2a + MEDI-545; donor 163; IFN alone 13.52) (relative expression): 4.8
  LY6E gene expression, Average (TAQMAN, whole blood + 100 IU IFNα2a + MEDI-545; donor 175; IFN alone 19.32) (relative expression): 3.74
  MARCKS gene expression, Average (TAQMAN, whole blood + 100 IU IFNα2a + MEDI-545; donor 163; IFN alone 2.59) (relative expression): 1.55
  MARCKS gene expression, Average (TAQMAN, whole blood + 100 IU IFNα2a + MEDI-545; donor 175; IFN alone 2.59) (relative expression): 0.55
  OAS1 gene expression (Average), 107 IFN + 545 (107 IFN alone 15.11; 107 VEH 1.00): 3.45
  OAS1 gene expression (Average), 163 IFN + 545 (163 IFN alone 14.19; 163 VEH 0.77): 3.05
  OAS1 gene expression (Average), 175 IFN + 545 (175 IFN alone 22.09; 175 VEH 1.62): 4.04
  OAS3 gene expression (Average), 107 IFN + 545 (107 IFN alone 49.04; 107 VEH 1.00): 7.03
  OAS3 gene expression (Average), 163 IFN + 545 (163 IFN alone 42.01; 163 VEH 0.49): 14.6
  OAS3 gene expression (Average), 175 IFN + 545 (175 IFN alone 37.87; 175 VEH 1.27): 3.92
  RAB8B gene expression, Average (TAQMAN, whole blood + 100 IU IFNα2a + MEDI-545; donor 163; IFN alone 2.20) (relative expression): 1.18
  RAB8B gene expression, Average (TAQMAN, whole blood + 100 IU IFNα2a + MEDI-545; donor 175; IFN alone 2.63) (relative expression): 1.15
  RSAD2 gene expression (Average), 107 IFN + 545 (107 IFN alone 109.64; 107 VEH 1.00): 9.88
  RSAD2 gene expression (Average), 163 IFN + 545 (163 IFN alone 71.47; 163 VEH 0.56): 4.39
  RSAD2 gene expression (Average), 175 IFN + 545 (175 IFN alone 126.27; 175 VEH 1.88): 8.43

## R347 (antibody)
IFNα2a (human)
  HERC5 gene expression (Average), 107 IFN + R347 (107 IFN alone 41.12; 107 VEH 1.00): 55
  HERC5 gene expression (Average), 163 IFN + R3437 (163 IFN alone 75.81; 163 VEH 1.05): 95.4
  HERC5 gene expression (Average), 175 IFN + R347 (175 IFN alone 74.58; 175 VEH 1.19): 98.2
  OAS1 gene expression (Average), 107 IFN + R347 (107 IFN alone 15.11; 107 VEH 1.00): 17.8
  OAS1 gene expression (Average), 163 IFN + R3437 (163 IFN alone 14.19; 163 VEH 0.77): 22.4
  OAS1 gene expression (Average), 175 IFN + R347 (175 IFN alone 22.09; 175 VEH 1.62): 15.2
  OAS3 gene expression (Average), 107 IFN + R347 (107 IFN alone 49.04; 107 VEH 1.00): 76.9
  OAS3 gene expression (Average), 163 IFN + R3437 (163 IFN alone 42.01; 163 VEH 0.49): 52.6
  OAS3 gene expression (Average), 175 IFN + R347 (175 IFN alone 37.87; 175 VEH 1.27): 34.9
  RSAD2 gene expression (Average), 107 IFN + R347 (107 IFN alone 109.64; 107 VEH 1.00): 107
  RSAD2 gene expression (Average), 163 IFN + R3437 (163 IFN alone 71.47; 163 VEH 0.56): 115
  RSAD2 gene expression (Average), 175 IFN + R347 (175 IFN alone 126.27; 175 VEH 1.88): 91
